The supplement of paper PMC9170038

Test system: K4 kissing-loop RNA reporter
Experiment: apparent KD of K4 kissing-loop reporter; higher = weaker reporter binding
Settings: Eterna round: R107
Description: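 RNA-MaP round R107: designed RNA switches with theophylline, tryptophan, arginine or FMN aptamers are transcribed on-chip within common flanks. They are titrated with a labelled K4 kissing-loop RNA reporter in RNA-MaP buffer (100 mM Tris pH 7.5, 80 mM KCl, 4 mM MgCl2), without ligand or with the indicated ligand. Median apparent KD per design.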

[1] = input ligand: theophylline 20 uM
[2] = input ligand: tryptophan 2.4 mM
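Also: bound reporter read as fluorescence of individual clusters on recovered sequencing chips by microscopy, with normalized cluster intensities fitted with a binding model.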

| Sequence | apparent KD of K4 kissing-loop reporter (input ligand: FMN 200 uM) | apparent KD of K4 kissing-loop reporter (input ligand: arginine 13.2 mM) | apparent KD of K4 kissing-loop reporter (input ligand: none) | apparent KD of K4 kissing-loop reporter [1] | apparent KD of K4 kissing-loop reporter [2] |
| --- | --- | --- | --- | --- | --- |
| AGUAGUUGGACGGCCGCCACUAGAACAGCUUUGCCAAAGGCAGAGCACUAGAGUGAUGUUCUAGCUAGGACCGGGUCCAACUACA [Omei KL Tryp B SS A v1] | 902 nM | 306 nM | 54.2 nM | 118 nM | 1000 nM |
| AGUAUUGAGUCGGCCGCCACUGGUUUAAUGAGUGUCAAUUCUGGAUCAAAGUGAUGUUUUGGAGCUAGGACCGGGACCAUUGUUA [#07 K4 Tryptophan B Exclusion] | 446 nM | 360 nM | 433 nM | 360 nM | 479 nM |
| AGUCCACUCUAAAGAGUGGACCUAAGGGAUACCAGUGAUGUUGGUCACCCUUGGCAGCCCACUGUCAUCGAUAAAGAUGGCAGGA | 128 nM | 112 nM | 116 nM | 119 nM | 117 nM |
| AGUCCACUCUAAAGAGUGGACCUAAGGGAUACCAGUGAUGUUGGUCACCCUUGGCAGCCCUCUGUCAUCGAUAAAGAUGGCAGGA | 128 nM | 114 nM | 113 nM | 137 nM | 119 nM |
| AGUCGAGAUUAUAGACUCGACAGGUCAGAAGGAGCGACGAAUUCGUCAGGUAGGUCGCUGACAUAGCAGUGAUGUUGCUAUACGG [Arg A SS t1] | 149 nM | 132 nM | 150 nM | 163 nM | 126 nM |
| AGUCGCAGUGAUGUUGCGAUUCCGUUGAGGGAGGAUAUUGGUAAUACAAGAAGGCCCGGCUACGGGAGAUGUUAGCAAUAGGGCC [Exclusion FMN A GF20] | 92 nM | 94.5 nM | 63 nM | 65 nM | 63.9 nM |
| AGUGAUAUAUGAGGAUAUGGGUUAAUUAGUGAGUGAUUUUUAGUGUUGUUUGAUUAGUGAUGUUAUUUAGAAGGCGUGAGUGAUG [mvvmjmullin] | 123 nM | 106 nM | 81.9 nM | 144 nM | 79.4 nM |
| AGUGAUAUAUGAGGAUAUGGGUUGGUUAAUGAGUUAGUUUUAGUGUUGUUUGGUUAGUGAUGUUAUUUAGAAGGCGUGAGUGAUG [sffdsmullin] | 99.6 nM | 88.3 nM | 81.8 nM | 95.8 nM | 71.8 nM |
| AGUGAUGUGGGAAGGAGCGCUAGUACACUUCAGUGAUGUUGAAGUGAUGAAUUAGUGUAUUGGCAGGUAGGUCGCCUAGAUGUUA [KL-XARG-B14] | 97.4 nM | 59.1 nM | 82.9 nM | 65.4 nM | 72.5 nM |
| AGUGAUGUGGGAAGGAGCGGUAGAUGAGUUCAGUGAUGUUGAAGUGAUGCUGUAGUGAUGUGCCAGGUAGGUCGCCUAGAUGUUA [KL-XARG B24] | 353 nM | 162 nM | 258 nM | 130 nM | 207 nM |
| AGUGAUGUGGGAAGGAGCGGUAUAAGAAUUCAGUGAUGUUGAAGUGUUGCAGAAAUAAAAGGCCAGGUAGGUCGCCUAGAUGUUA [KL-XARG B29] | 347 nM | 384 nM | 454 nM | 519 nM | 243 nM |
| AGUGCACUGUCAGGAUAUAUACAGUGAUGUUGUGUAUGUCAGCAAGUCAAAGACUUGCUAUUUUGUGUAGAAGGGACUGUGUACA [whbob_Ex_FMNB__2th221] | 385 nM | 156 nM | 176 nM | 155 nM | 177 nM |
| AGUGGACGUGUCCGGAGUGAUGUUCCGGAUACCAGACACGAAAGUGUCCCUUGGCAGCCGGAGUAAAGUUCCGGCGUUCACUAAA [#26 K4 Theophylline A Exclusion] | 109 nM | 77.8 nM | 111 nM | 67.2 nM | 105 nM |
| AGUGGACGUGUCCGGAGUGAUGUUCCGGAUACCAGACACGAAAGUGUCCCUUGGCAGCCGGAGUGAUGUUCCGGCGUUCACUAAA [Omei KL Theo A Exc B v1] | 270 nM | 185 nM | 243 nM | 220 nM | 257 nM |
| AGUGGUGUAUCUUUUAAGAGUGAUGUUUUUCGAGGACCGGUACGGCCGCCACUCGAGUGAUGAGUGCGUCGUUGUGGUGAUUAGU [#14 K4 Tryptophan A Exclusion] | 816 nM | 530 nM | 826 nM | 688 nM | 262 nM |
| AGUGUUAGGUUAGAUACCAGCCGUCUAUGGAUAAUCCUCAGACCGCCAGUGAUGUUGGCAGGCCCUUGGCAGCUAACAGAACAGA [Reinonor] | 202 nM | 218 nM | 240 nM | 164 nM | 213 nM |
| AGUGUUAGGUUAGAUACCAGCCGUCUGUGGAUAAUCCUCAGACCGCCAGUGAUGUUGGCAGGCCCUUGGCAGCUAACAGGACAGA [Mavebius] | 275 nM | 268 nM | 272 nM | 155 nM | 237 nM |
| AGUUCUUGCCGAAGGAGCGAGGCAGAGUGAUGUUCUGCAAAGGUCGAAAGACCUUAACUGCCUCAGGUAGGUCGCGGCAUGAACA [KL-XARG-B23] | 622 nM | 351 nM | 624 nM | 602 nM | 580 nM |
| AGUUCUUGCCGAAGGAGCGAGGCAGAGUGAUGUUCUGCAGGAGGUCGAAAGACCUCCCUGCCUCAGGUAGGUCGCGGCAUGAACA [Omei KL Arginine B Exc A v1] | 587 nM | 590 nM | 1250 nM | 566 nM | 478 nM |
| AUAGACUUGCAGUGAUGUUGCAAGUGAGACUAGGAUAUCAGGAAGCUGAGAAGGAGUCAUCUCCUUCAGACAUCACUAUGAAGGA [whbob_SS_FMNA__2th180] | 270 nM | 180 nM | 251 nM | 204 nM | 221 nM |
| AUAGGAGUGAUGUUCCUUAGUCUCUCCGAUACCAGUAUGGAAACAUACCCUUGGCAGCGGUAGACCGCAGAUUAGGAAACUAGUC [Theophylline A K4 3] | 657 nM | 726 nM | 785 nM | 503 nM | 610 nM |
| AUAUAGAGUGAUGUUCAUGAGUAUUUCGAAGGAGCGCUAAAUAAGGCAGGUAGGUCGCGGAAAAUAUAUAUAUAGAUAUAUAUAU [KL-SSArg-A29] | 168 nM | 351 nM | 535 nM | 665 nM | 280 nM |

| Sequence | apparent KD of K4 kissing-loop reporter (input ligand: FMN 200 uM) | apparent KD of K4 kissing-loop reporter (input ligand: arginine 13.2 mM) | apparent KD of K4 kissing-loop reporter (input ligand: none) | apparent KD of K4 kissing-loop reporter [1] | apparent KD of K4 kissing-loop reporter [2] |
| --- | --- | --- | --- | --- | --- |
| AUAUUAAGCGGAAGGAGCGGCUGAACCAGUGAUGUUGGUUAAUCCAAGUGAUGUUGGAAAAGCCAGGUAGGUCGCCGCUAUAUAU [Same State Arg B GF 1] | 725 nM | 424 nM | 695 nM | 569 nM | 640 nM |
| AUCGAUAUCAGAGGAUAUGCUUAAUAGAUUUAUUAUUAUCUAUUAUGCAGUGAUGUUGCAUAUUUUGCAGAAGGCUGAUUUCGAA [JR_SSFMNB_Sub019] | 124 nM | 433 nM | 447 nM | 429 nM | 403 nM |
| AUCGUUGUCUGAGGAUAUCGUUUAACUGUAGUGAUGUUACAGAAAAUUCAUAUUAUAUUUUCUAUUCGAGAAGGCAGACUACGUA [JR_ExcFMNB_Sub016] | 172 nM | 133 nM | 135 nM | 123 nM | 138 nM |
| AUCUAUGAGCGAGGAUAUGCAUGACGCGAGUGAUGUUCGCGAUGUGGGCGUGAUUAGUAAUAUGAAGCAGAAGGCGCACUCAUGA [Exclusion - FMW B / A] | 216 nM | 111 nM | 153 nM | 116 nM | 129 nM |
| AUCUGGUUGGGCGAUACCAGUUUGGCAUAGUGAUGUUAUGCAACGCUCAGUGCAAGGCCAAACCCUUGGCAGCGCACAUCCUUUC [theeternabot_exclusion_KL_Theo_B_3] | 128 nM | 99.1 nM | 105 nM | 117 nM | 105 nM |
| AUCUUGUUUGGAGGAUAUUCUUUAUUUGACAUAACCUUCUAUAAGGUGCAGUGAUGUUGCAAUAUAGGAGAAGGUCGAGUGAGAU [Exclusion FMN B GF 18] | 190 nM | 160 nM | 188 nM | 202 nM | 177 nM |
| AUGCGCGCGGCGGCCGCCACUCGCAUGAGAGUGAUGUUCUCGCCGGGCCCGGAAGGGCCCGGUGUGAGGACCGGGCCGGGCUGCG [#2 Same State - Tryptophan B Attempt #17 (HarryS)] | 121 nM | 73.2 nM | 175 nM | 278 nM | 344 nM |
| AUGCGGUGGAGGCUACCGCUAUUCUGAGAAGGAGCGCAGAUGACUGCAGGUAGGUCGCUUAGAGCUUGCAGUGAUGUUGCAAGUU [Islatimaed] | 200 nM | 168 nM | 191 nM | 174 nM | 204 nM |
| AUGGCACGACUUGCCCACAAUGUCUAUGCCCGAGGACCGGUACGGCCGCCACUCGGAUGCCGUGUCUUAUUAGUGAUGUUGAUAC [theeternabot_sameState_KL_Trp_A_4] | 355 nM | 204 nM | 411 nM | 355 nM | 199 nM |
| AUGGUUGUCGUAGGAUAUGUAGGAUAUUCCUAUAGCAGUGAUGUUGCUAAUAUCUUGGAAAGAAGGACAGAAGGACGAUAACCAC [KL-SSFMN-B2 #analogue] | 114 nM | 112 nM | 119 nM | 108 nM | 111 nM |
| AUGUAUGAAUUAGGAUAUCGUUAGCCUUGCAUAUAUAUGAUAAAUGGAUAUGUCGUAGUGAUGUUACGAGAAGGAGUGUGGAGUA [KL-XFMN-B5] | 44.6 nM | 50.5 nM | 38.9 nM | 63.4 nM | 30.2 nM |
| AUGUAUGAAUUAGGAUAUCGUUAGCCUUUCAUAUAUAUGAUAAAUGGAUAUGUCGUAGUGAUGUUACGAGAAGGAGUGUGGAGUA [KL-XFMN-B8] | 49.3 nM | 52.9 nM | 38.2 nM | 64.6 nM | 30.5 nM |
| AUGUUGAGCGGAAGGAGCGGCUGAGCCAGUGAUGUUGGUUAAUCCAAGUGAUGUUGGAAAAGCCAGGUAGGUCGCCGUUUUACGU [whbob_SS_Arginine_B_2t145] | 1010 nM | 597 nM | 1190 nM | 807 nM | 887 nM |
| AUUAAUAACAGAGGAUAUGCAUUUUUAUUAUUUUUUAUUAUUAUAUGCAGUGAUGUUGCAUAUUAAGCAGAAGGCUGAUUUAUUU [JR_SSFMNB_Sub013] | 117 nM | 105 nM | 79 nM | 110 nM | 102 nM |
| AUUAAUAUCACGGCCGCCACUGAAUAUUGUUUUUAUAUUUAGAAUAAUUGCCAGUGAUGUUGGAUCAGGACCGGGUGAUUUUAUA [JR_SSTryptoB_Sub008] | 775 nM | 489 nM | 727 nM | 739 nM | 360 nM |
| AUUAAUUUCAGAGGAUAUCGUAUUUAUAUUAUAUCUUUCCAUAUUUGCAGUGAUGUUGCAUUAAUUCGAGAAGGCUGAUUUAUAA [JR_Nu_ExcFMNB_Sub024] | 86.1 nM | 91 nM | 60.4 nM | 82.4 nM | 53.7 nM |
| AUUAAUUUCAGAGGAUAUCGUUAUUUUUUAUAGUAUAUUCAAUUAUGCAGUGAUGUUGCUAUUAAUCGAGAAGGCUGAUUUAUAA [JR_ExcFMNB_Sub002] | 179 nM | 204 nM | 156 nM | 250 nM | 112 nM |
| AUUCAGAUCUGAAGGAGCGCGUUGACAUAUUGCUUCAUUGAGCAGUGAUGUUGCUCAGUAACGCAGGUAGGUCGCAGAUCUGGCC [Arg B Ex t7a] | 113 nM | 110 nM | 99 nM | 92.3 nM | 104 nM |
| AUUCAUUUCAGAGGAUAUCGAUGGAGAGUGAUGUUCUCCCAUAGCCAGUGAUGUUGGCUAGCUAUUCGAGAAGGCUGUGGGUGGA [Same State FMN B GF 27] | 141 nM | 227 nM | 210 nM | 202 nM | 208 nM |
| AUUCGCAGUGAUGUUGCGAUUCCGUUGAGGGAGGAUAUUGGUAAUACAAGAAGGCCCGGCUGCGGGUGAUGUUCGCAUUAGGGCC [Exclusion FMN A GF18] | 151 nM | 143 nM | 146 nM | 153 nM | 126 nM |
| AUUCGCUCCACUGAUACCAGUCAUCGAGCAAGAUGCUAAGCCAGUGAUGUUGGCAUGAAUGACCCUUGGCAGCAGUACACUAAGG [Theo B SS t7] | 65.4 nM | 106 nM | 75.6 nM | 113 nM | 60 nM |
